Assay results reported in article PMC7705432 (Cell Research, 2020).

Target: T1, SARS-CoV-2 S trimer (SARS-CoV-2, Wuhan-Hu-1 (GenBank …, stabilised))
T1 construct: also called Spike (S) protein
Assay: cryo-EM structure
Conditions: both partners purified

Binder | stoichiometry N
H014 Fab (Fab, V domains shown) VH: VQLVQSGAEVKKPGATVKISCKVSGYSFSNYYIHWVKQAPGKSLEWIGYIDPFNGGTSDNLKFKGAATLTADTSTDTAYMELSSLRSEDTAVYYCARSEYDPYYVMDYWGQGTTVTVSS VL: IVLTQSPFQSVSPKEKVTITCRASQSISSNLHWYQQKPDQSPKLLIKYASQSISGIPSRFSGSGSGTDFTLTINSLEAEDFGIYFCQQTNFWPYIFGQGTKLEIL | 3 Fabs per S trimer
P17 Fab (Fab, V domains shown, also called P17 Fabs) VH: QQLVESGGGVVQPGRSLRLSCAASGFTFSSYAMHWVRQAPGKGLEWVAVISYDGSNKYYADSVKGRFTISRDNSKNTLYLQMNSLRAEDTAVYYCARHATLMNNKDIWGQGTLVTVSS VL: not shown | 3 Fabs per S trimer
